Test system: T1, Recombinant gasdermin D (rGSDMD), full-length
T1 sequence: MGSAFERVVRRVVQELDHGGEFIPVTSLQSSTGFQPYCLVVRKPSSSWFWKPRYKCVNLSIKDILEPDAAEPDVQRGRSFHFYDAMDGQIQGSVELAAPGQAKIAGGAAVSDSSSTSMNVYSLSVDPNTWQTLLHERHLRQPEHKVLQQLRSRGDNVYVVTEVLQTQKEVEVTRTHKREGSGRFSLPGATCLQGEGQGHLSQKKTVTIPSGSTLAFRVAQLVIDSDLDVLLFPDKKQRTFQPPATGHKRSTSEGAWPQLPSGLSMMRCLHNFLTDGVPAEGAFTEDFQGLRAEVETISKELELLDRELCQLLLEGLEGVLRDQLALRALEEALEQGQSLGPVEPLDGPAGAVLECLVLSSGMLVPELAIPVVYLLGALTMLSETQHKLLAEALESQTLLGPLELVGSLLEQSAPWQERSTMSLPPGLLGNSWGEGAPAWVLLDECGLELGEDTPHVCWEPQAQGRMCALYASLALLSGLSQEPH

## Recombinant caspase-1
  cleavage of recombinant gasdermin D (1 hour at 37 C, SDS-PAGE and protein stain): resulted in the formation of a ~31 kDa N-terminal domain and ~22 kDa C-terminal domain

From patent US20220275069
